Reference: article PMC4945409

Molecular target: wild-type KDPG aldolase scaffold (1wa3)
Assay: SEC

Substance: wild-type KDPG aldolase scaffold (1wa3) (enzyme)
- stoichiometry N: 3
